According to article PMC7924733 (Journal of molecular biology, 2021):
Substitutions are numbered along the chain they refer to. Numbers in names are those of the source.

B1: His6-Atg16 L71C (natural protein, S. cerevisiae, UniProt Q03818 1-150, looked up)
chain: MGNFIITERKKAKEERSNPQTDSMDDLLIRRLTDRNDKEAHLNELFQDNSGAIGGNIVSHDDALLNTLAICQKELKSKEQEIRRLKEVIALKNKNTERLNDELISGTIENNVLQQKLSDLKKEHSQLVARWLKKTEKETEAMNSEIDGTK
B2: Atg16 L71C L85C L99C L120C (natural protein, S. cerevisiae, UniProt Q03818 1-150, looked up)
chain: B1 chain with L85C, L99C, L120C
B3: Atg16 L71C L120C (natural protein, S. cerevisiae, UniProt Q03818 1-150, looked up)
chain: B1 chain with L120C

Target: the molecule itself
Assay: cross-linking

Stoichiometry N, 2:
B1
B2
B3
